From patent US7799901B2, “Modulators of the function of FAS receptors and other proteins” (Yeda Research and Development Co. Ltd., priority 1995, dated 2010)

Tests used:
[1] = target: T1, MACHα1 (Homo sapiens, UniProt Q14790); assay: Two-hybrid β-galactosidase filter assay (FIG. 5), binding to MACHα1; conditions: two hybrid test
T1 construct: expressed in transfected cells; host or cells: SFY526 yeast
Description: In FIG. 5, there is shown the results of the interaction of MORT-1 and MACH within transfected yeast cells. Briefly, MORT-1 and MACHβ1 and their deletion constructs, as well as MACHα1, a MACHα1 mutant in which the catalytic cysteine Cys360 is replaced by Ser (MACHα1 (C360S)) and the intracellular domain of human FAS-R (Fas-IC), were expressed within transfected SFY526 yeast in Gal4 DNA binding domain and activation domain constructs (pGBT9 and pGAD-GH). Their interaction was assessed by a β-galactosidase expression filter assay as described in Boldin et al (1995b). The results are presented in terms of the time required for the development of strong color. […] None of the inserts examined interacted with a number of tested negative controls, including the intracellular domains of human p55 TNF receptor, p75 TNF receptor and CD40, and lamin, cyclin D and ‘empty’ Gal4 vectors. MACHβ1 was cloned by two hybrid screening of a Gal4 AD-tagged human B cell library (Durfee et al, 1993) for proteins that bind to MORT-1, using the HF7c Yeast reporter strain. Except where otherwise indicated, all experimental procedures for the findings presented are as described above (see also Boldin et al, 1995). […] MACHβ1 also self-associated in the transfected yeast. […] Expression of MACHβ1 molecules in mammalian cells yielded a 34 kDa protein that bound to MORT-1 molecules co-expressed with it. […]

[2] = target: T2, p75 TNF receptor (Homo sapiens, UniProt P20333); assay: Two-hybrid test of MORT-1 binding (FIG. 1), p75 TNF receptor; conditions: p75-IC residues 287-461, FIG. 1
T2 construct: human p75 TNF receptor (p75-IC, residues 287-461); expressed in transfected cells; host or cells: SFY526 yeast
T2 sequence (P20333 287-461): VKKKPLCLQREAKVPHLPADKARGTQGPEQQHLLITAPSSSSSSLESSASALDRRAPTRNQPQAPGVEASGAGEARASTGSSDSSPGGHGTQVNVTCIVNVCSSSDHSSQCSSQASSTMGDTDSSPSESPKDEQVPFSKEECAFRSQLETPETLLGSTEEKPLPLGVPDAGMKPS
Source text: To isolate proteins interacting with the intracellular domain of the FAS-R, the yeast two-hybrid system was used (Fields and Song, 1989). […] In this system, the genes for the candidate interacting proteins are cloned into separate expression vectors. In one expression vector, the sequence of the one candidate protein is cloned in phase with the sequence of the GAL4 DNA-binding domain to generate a hybrid protein with the GAL4 DNA-binding-domain, and in the other vector, the sequence of the second candidate protein is cloned in phase with the sequence of the GAL4 activation domain to generate a hybrid protein with the GAL4-activation domain. The two hybrid vectors are then co-transformed into a yeast host strain having a lacZ or HIS3 reporter gene under the control of upstream GAL4 binding sites. Only those transformed host cells (cotransformants) in which the two hybrid proteins are expressed and are capable of interacting with each other, will be capable of expressing the reporter gene. In the case of the lacZ reporter gene, host cells expressing this gene will become blue in color when X-gal is added to the cultures. […]
In FIG. 1, there is depicted the interaction of the proteins encoded by the Gal4 DNA binding domain and activation-domain constructs (pGBT9 and pGAD-GH) within transfected SFY526 yeasts as assessed by β-galactosidase expression filter assay. […]

T1 sequence (Q14790 217-479): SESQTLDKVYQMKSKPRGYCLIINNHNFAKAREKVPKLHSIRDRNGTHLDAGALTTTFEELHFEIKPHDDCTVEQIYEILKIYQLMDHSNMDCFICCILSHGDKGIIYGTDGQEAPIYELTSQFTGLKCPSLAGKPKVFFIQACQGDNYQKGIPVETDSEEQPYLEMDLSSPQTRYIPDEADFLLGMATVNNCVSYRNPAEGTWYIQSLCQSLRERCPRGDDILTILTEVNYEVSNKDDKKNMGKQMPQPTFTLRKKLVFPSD

Molecule: MACHα1: MACH isoform, cDNA SEQ ID NO: 14, amino acid SEQ ID NO: 7; contains CED3/ICE homology region
- binding to MACHα1 in transfected yeast (self-interaction) [1]: did not exhibit self-interaction

B1: MORT-1: Mediator of Receptor-induced Toxicity; protein binding the intracellular domain of FAS-R, SEQ ID NO:2 (protein)
chain: VNQAPECRFGGGILGPLGKRRDLARASEPRTEGARRAGPQPRPLADPAMDPFLVLLHSVSSSLSSSELTELKFLCLGRVVKRKLERVQSGLDLFSMLLEQNDLEPGHTELLRELLASLRRHDLLRRVDDFEAGAAAGAAPGEEDLCAAFNVICDNVGKDWRRLARQLKVSDTKIDSIEDRYPRNLTERVRESLRIWKNTEKENATVAHLVGALRSCQMNLVADLVQEVQQARDLQNRSGAMSPMSWNSDASTSEAS
- binding to p75 TNF receptor in two-hybrid test [2]: not
